Reference: paper doi:10.1101/287425

Target: pyrene-labeled actin (rabbit skeletal muscle F-actin) (rabbit) (UniProt P68135)
Test: other fluorescence titration

**Q.** How did the relative pyrene-actin fluorescence after addition of 2.0 mM MgATP turn out when “single-headed S1 fragment of bovine ventricular cardiac myosin (from UniProt Q9BE39 1-1935; P85100 1-199) (complex)” was run?
**A.** 0.95

**Q.** And the stoichiometry N (myosin heads per actin)?
**A.** 1
